One assay has as its target VEGF (UniProt P15692). The assay is described as follows: co-incubation of VEGF with particles, particulate removed, free VEGF in supernatant measured by ELISA.
Assay [1] deals with T1, ABRAXANE® / albumin-bound paclitaxel (UniProt P02768 25-609, paclitaxel non-covalently bound).
T1 construct: Nanoparticle of many albumin molecules with paclitaxel, not a single polypeptide; also called ABX; Paclitaxel Albumin-stabilized Nanoparticle Formulation
The assay is described as follows: flow cytometry of particles stained with goat anti-mouse IgG and PE.

Assay [2] concerns the target AB160 (nanoparticle of albumin-bound paclitaxel and bevacizumab, ratio about 10:4, average size 160 nm) (UniProt P02768). The assay is described as above.
Assay [3] deals with T1, ABRAXANE® / albumin-bound paclitaxel. Description: co-incubation of VEGF with particles, particulate removed, free VEGF in supernatant measured by ELISA. Background: ELISA stands for enzyme-linked immunosorbent assay.
Method: AB160 was prepared as described and 2000 μg/ml VEGF was added to the AB160 complex or ABX alone. The VEGF was incubated with the nanoparticles for 2 hours at room temperature. The suspension was spun at 6000 rpm for 15 minutes, supernatants were collected and free VEGF was measured by ELISA. Briefly, ELISA plates were coated with capture antibody overnight at 4° C. Plates were washed, blocked and standards and samples were added. After washing, detection antibody was added and plates were developed with substrate (R and D Systems, Minneapolis, MN). Absorbance was measured at 450 nm using a Versamax ELISA plate reader (Molecular Devices, Sunnyvale, CA). The concentration of unbound VEGF was determined with a standard curve from 0 to 2000 μg/ml.

Regarding “AB160 (nanoparticle of albumin-bound paclitaxel and bevacizumab, ratio about 10:4, average size 160 nm) (from UniProt P02768 25-609)”, in the assay with VEGF, the % VEGF unbound was below 10%.

As to goat anti-mouse IgG (antibody), the results for the % positive in assay [1] and in assay [2] were 6.7% and 41.2%, respectively.

B1: VEGF (ligand, UniProt P15692-4 27-191, looked up)
chain: APMAEGGGQNHHEVVKFMDVYQRSYCHPIETLVDIFQEYPDEIEYIFKPSCVPLMRCGGCCNDEGLECVPTEESNITMQIMRIKPHQGQHIGEMSFLQHNKCECRPKKDRARQENPCGPCSERRKHLFVQDPQTCKCSCKNTDSRCKARQLELNERTCRCDKPRR
As to B1, in assay [3], the binding result is “no binding (tested: 2000 µg/ml VEGF)”.

The values are drawn from US20250170067A1 (published 2025).
